# Test results taken from patent US20160334404.
# B1: recombinant lipoprotein-associated phospholipase A2 (rLp-PLA2) expressed in HEK293 cells (protein)
# chain: FDWQYINPVAHMKSSAWVNKIQVLMAAASFGQTKIPRGNGPYSVGCTDLMFDHTNKGTFLRLYYPSQDNDRLDTLWIPNKEYFWGLSKFLGTHWLMGNILRLLFGSMTTPANWNSPLRPGEKYPLVVFSHGLGAFRTLYSAIGIDLASHGFIVAAVEHRDRSASATYYFKDQSAAEIGDKSWLYLRTLKQEEETHIRNEQVRQRAKECSQALSLILDIDHGKPVKNALDLKFDMEQLKDSIDREKIAVIGHSFGGATVIQTLSEDQRFRCGIALDAWMFPLGDEVYSRIPQPLFFINSEYFQYPANIIKMKKCYSPDKERKMITIRGSVHQNFADFTFATGKIIGHMLKLKGDIDSNVAIDLSNKASLAFLQKHLGLHKDFDQWDCLIEGDDENLIPGTNINTTNQHIMLQNSSGIEKYN
# Molecular target: Q13093
# Assay: estimated from dilution inactivation (residual CAM activity against enzyme concentration), self-association
protein,measurement,value
B1,concentration at which roughly half is monomer and half aggregate or oligomer,"At the concentration at 2.5 µg/ml or 53 nM, roughly half of rLp-PLA2 is in monomer and half forms the aggregate or oligomer as estimated"
